In US10450368 (DUKE UNIVERSITY, dated 2019):

Tests used:
Histones [1] = target: T1, Histones; experiment: AtheNA, Ab 50 ug/ml
T1 construct: Mixture of proteins
Excerpt: (§1) AtheNA Multi-Lyte ANA Plus Test System is one such assay. This is luminex-based assay, which is also used to screen patient sera.

RNP (ribonucleoprotein) [2] = target: T2, RNP (ribonucleoprotein); experiment: AtheNA, Ab 50 ug/ml
T2 construct: Protein-RNA complex
Excerpt: as §1

SSA [3] = target: T3, SSA; experiment: AtheNA, Ab 50 ug/ml
T3 construct: also called SSA (Ro)
Excerpt: as §1

Centromere B [4] = target: T4, Centromere B (UniProt P07199 1-599); experiment: AtheNA, Ab 50 ug/ml
T4 construct: also called Cent B
T4 sequence: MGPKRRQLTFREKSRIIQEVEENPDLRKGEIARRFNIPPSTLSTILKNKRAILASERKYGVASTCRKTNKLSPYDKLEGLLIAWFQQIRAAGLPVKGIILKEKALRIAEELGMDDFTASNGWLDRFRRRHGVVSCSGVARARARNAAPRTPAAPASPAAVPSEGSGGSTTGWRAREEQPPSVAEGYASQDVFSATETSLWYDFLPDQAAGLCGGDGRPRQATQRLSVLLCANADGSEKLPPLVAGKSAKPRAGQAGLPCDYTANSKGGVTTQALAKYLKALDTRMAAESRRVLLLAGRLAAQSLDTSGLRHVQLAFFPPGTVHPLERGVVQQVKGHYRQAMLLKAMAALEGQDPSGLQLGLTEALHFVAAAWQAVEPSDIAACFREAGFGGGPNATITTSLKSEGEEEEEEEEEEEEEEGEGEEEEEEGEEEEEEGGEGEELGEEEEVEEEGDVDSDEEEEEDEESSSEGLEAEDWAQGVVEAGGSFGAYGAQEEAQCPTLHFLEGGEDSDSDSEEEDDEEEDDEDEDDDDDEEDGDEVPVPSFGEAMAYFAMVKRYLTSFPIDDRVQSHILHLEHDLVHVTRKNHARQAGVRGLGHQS
Excerpt: as §1

Sm (Smith antigen) [5] = target: T5, Sm (Smith antigen); experiment: AtheNA, Ab 50 ug/ml
T5 construct: Protein complex
Excerpt: as §1

CH505.TF gp120 delta371I = experiment: direct-binding ELISA (OD450), panel 'CH505.TF gp120 delta371I'
Histones [6] = target: T1, Histones; experiment: AtheNA, Ab 25 ug/ml
Excerpt: as §1

RNP (ribonucleoprotein) [7] = target: T2, RNP (ribonucleoprotein); experiment: AtheNA, Ab 25 ug/ml
Excerpt: as §1

SSA [8] = target: T3, SSA; experiment: AtheNA, Ab 25 ug/ml
Excerpt: as §1

Centromere B [9] = target: T4, Centromere B; experiment: AtheNA, Ab 25 ug/ml
Excerpt: as §1

Sm (Smith antigen) [10] = target: T5, Sm (Smith antigen); experiment: AtheNA, Ab 25 ug/ml
Excerpt: as §1

CH505w136.B18D8gp120 = experiment: ELISA
Con S gp120 = experiment: direct-binding ELISA (OD450), panel 'Con S gp120'
Histones [11] = target: T1, Histones; experiment: AtheNA, Ab 12.5 ug/ml
Excerpt: as §1

RNP (ribonucleoprotein) [12] = target: T2, RNP (ribonucleoprotein); experiment: AtheNA, Ab 12.5 ug/ml
Excerpt: as §1

SSA [13] = target: T3, SSA; experiment: AtheNA, Ab 12.5 ug/ml
Excerpt: as §1

Centromere B [14] = target: T4, Centromere B; experiment: AtheNA, Ab 12.5 ug/ml
Excerpt: as §1

Sm (Smith antigen) [15] = target: T5, Sm (Smith antigen); experiment: AtheNA, Ab 12.5 ug/ml
Excerpt: as §1

Histones [16] = target: T1, Histones; experiment: AtheNA, Ab 6.25 ug/ml
Excerpt: as §1

RNP (ribonucleoprotein) [17] = target: T2, RNP (ribonucleoprotein); experiment: AtheNA, Ab 6.25 ug/ml
Excerpt: as §1

SSA [18] = target: T3, SSA; experiment: AtheNA, Ab 6.25 ug/ml
Excerpt: as §1

Centromere B [19] = target: T4, Centromere B; experiment: AtheNA, Ab 6.25 ug/ml
Excerpt: as §1

Sm (Smith antigen) [20] = target: T5, Sm (Smith antigen); experiment: AtheNA, Ab 6.25 ug/ml
Excerpt: as §1

CH505.M19D8gp120 = experiment: ELISA
CH505.M9D8gp120/293F = experiment: ELISA
CH505.M10D8gp120 = experiment: ELISA
CH505.M5D8gp120293F = experiment: ELISA
CH505.M11D8gp120/293F = experiment: ELISA
CH505.TF mutant gp120 M6 [21] = target: T6, CH505.TF mutant gp120 M6 (HIV-1); experiment: ELISA
T6 construct: domain: gp120

CH505.M7D8gp120/293F = experiment: ELISA
CH505.TF mutant gp120 M8 = target: T7, CH505.TF mutant gp120 M8 (HIV-1); experiment: ELISA
T7 construct: domain: gp120

[22] = target: T8, CH505.TF mutant gp120 M20 (HIV-1); experiment: ELISA
T8 construct: domain: gp120

CH505.M21D8gp120/293F = experiment: ELISA
CH505.TF mutant gp120 M6 [23] = target: T6, CH505.TF mutant gp120 M6; experiment: direct-binding ELISA (OD450), panel 'CH505.TF gp120 M6'
CH0505_CON D7gp120/293i = experiment: ELISA
CH505w020.14D8gp120 = target: T9, CH505w020.14D8gp120; experiment: ELISA
T9 construct: also called CH505w20.14 gp120

CH505.w30.12D8gp120 = target: T10, CH505.w30.12D8gp120; experiment: ELISA
T10 construct: also called CH505w30.12 gp120

CH505w030.20D8gp120/293F = target: T11, CH505w030.20D8gp120/293F; experiment: ELISA
T11 construct: also called CH505w30.20 gp120

B1: CH491 (antibody, V domains shown)
VH: QVQLVQSGAAVKRPGASVTISCRASGYTFTTYYIHWVRQAPGQGLELMGWINPRGGRTDYSYRFEDRVSMYRDTSMSIVYMDLRNLKSADTAVYYCVRNVGTSGSLLHYDFWGQGSLVTVSS
VL: EIVLTQSPATLSVSPGERVTLSCRASQSVRNNLAWYRQKRGQAPRLLIYGASTRATGIPARFSGSGSGTEFTLTISSMQSEDFAVYYCQQYNNWWTFGQGTKVEIK
notes: also called CH235.7; DH491
Work on B1 yielded an AtheNA signal (Histones [1]) of 59, an AtheNA signal (RNP (ribonucleoprotein) [2]) of 43 and an AtheNA signal (SSA [3]) of 68. The AtheNA signal (Centromere B [4]) was 54, the AtheNA signal (Sm (Smith antigen) [5]) was 6 and the “EC50 (read off the curve)” value (CH505.TF gp120 delta371I) was roughly 8 µg/mL. The AtheNA signal (Histones [6]) was 44, the AtheNA signal (RNP (ribonucleoprotein) [7]) was 30 and the AtheNA signal (SSA [8]) was 44. For the same binder, the AtheNA signal (Centromere B [9]) was 45, the AtheNA signal (Sm (Smith antigen) [10]) was 4 and the LogAUC (CH505w136.B18D8gp120) was 3.53. The “EC50 (read off the curve)” value (Con S gp120) was roughly 0.05 µg/mL, the AtheNA signal (Histones [11]) was 34 and the AtheNA signal (RNP (ribonucleoprotein) [12]) was 24. For the same binder, the AtheNA signal (SSA [13]) was 28, the AtheNA signal (Centromere B [14]) was 34 and the AtheNA signal (Sm (Smith antigen) [15]) was 3. The AtheNA signal (Histones [16]) was 26, the AtheNA signal (RNP (ribonucleoprotein) [17]) was 18 and the AtheNA signal (SSA [18]) was 21. The AtheNA signal (Centromere B [19]) was 26, the AtheNA signal (Sm (Smith antigen) [20]) was 4 and the LogAUC (CH505.M19D8gp120) was 6.61. It also gave a LogAUC (CH505.M9D8gp120/293F) of 0, a LogAUC (CH505.M10D8gp120) of 10.6 and a LogAUC (CH505.M5D8gp120293F) of 10.6. The LogAUC (CH505.M11D8gp120/293F) was 6.75, the LogAUC (CH505.TF mutant gp120 M6 [21]) was 9.21 and the LogAUC (CH505.M7D8gp120/293F) was 0. For the same binder, the LogAUC (CH505.TF mutant gp120 M8) was 0, the LogAUC [22] was 0 and the LogAUC (CH505.M21D8gp120/293F) was 0. For the same binder, the “EC50 (read off the curve)” value (CH505.TF mutant gp120 M6 [23]) was roughly 0.2 µg/mL, the LogAUC (CH0505_CON D7gp120/293i) was 9.64 and the LogAUC (CH505w020.14D8gp120) was 9.35. It also gave a LogAUC (CH505.w30.12D8gp120) of 3.89 and a LogAUC (CH505w030.20D8gp120/293F) of 8.82.
